Source: patent US20250262210A1 (TRUSTEES OF COLUMBIA UNIVERSITY IN THE CITY OF NEW YORK, published 2025)

Tests used:
Test in all cases: IP/MS, LZTR1 wild type-FLAG, U87
KNL1 = KNL1 (human, UniProt Q8NG31 1-2342, limits assumed)
Procedure, shortened: (§1)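 Gel slices were reduced with 5 mM DTT, alkylated with 11 mM IAA and digested overnight at 37° C. with trypsin. Peptides were analysed on an Orbitrap Fusion Tribrid by LC-MS/MS.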

BRCA2 = BRCA2 (human, UniProt P51587 1-3418)
Procedure, shortened: as §1

USP47 = target: T1, USP47 (human, UniProt Q96K76 1-1375, limits assumed)
T1 sequence (looked up): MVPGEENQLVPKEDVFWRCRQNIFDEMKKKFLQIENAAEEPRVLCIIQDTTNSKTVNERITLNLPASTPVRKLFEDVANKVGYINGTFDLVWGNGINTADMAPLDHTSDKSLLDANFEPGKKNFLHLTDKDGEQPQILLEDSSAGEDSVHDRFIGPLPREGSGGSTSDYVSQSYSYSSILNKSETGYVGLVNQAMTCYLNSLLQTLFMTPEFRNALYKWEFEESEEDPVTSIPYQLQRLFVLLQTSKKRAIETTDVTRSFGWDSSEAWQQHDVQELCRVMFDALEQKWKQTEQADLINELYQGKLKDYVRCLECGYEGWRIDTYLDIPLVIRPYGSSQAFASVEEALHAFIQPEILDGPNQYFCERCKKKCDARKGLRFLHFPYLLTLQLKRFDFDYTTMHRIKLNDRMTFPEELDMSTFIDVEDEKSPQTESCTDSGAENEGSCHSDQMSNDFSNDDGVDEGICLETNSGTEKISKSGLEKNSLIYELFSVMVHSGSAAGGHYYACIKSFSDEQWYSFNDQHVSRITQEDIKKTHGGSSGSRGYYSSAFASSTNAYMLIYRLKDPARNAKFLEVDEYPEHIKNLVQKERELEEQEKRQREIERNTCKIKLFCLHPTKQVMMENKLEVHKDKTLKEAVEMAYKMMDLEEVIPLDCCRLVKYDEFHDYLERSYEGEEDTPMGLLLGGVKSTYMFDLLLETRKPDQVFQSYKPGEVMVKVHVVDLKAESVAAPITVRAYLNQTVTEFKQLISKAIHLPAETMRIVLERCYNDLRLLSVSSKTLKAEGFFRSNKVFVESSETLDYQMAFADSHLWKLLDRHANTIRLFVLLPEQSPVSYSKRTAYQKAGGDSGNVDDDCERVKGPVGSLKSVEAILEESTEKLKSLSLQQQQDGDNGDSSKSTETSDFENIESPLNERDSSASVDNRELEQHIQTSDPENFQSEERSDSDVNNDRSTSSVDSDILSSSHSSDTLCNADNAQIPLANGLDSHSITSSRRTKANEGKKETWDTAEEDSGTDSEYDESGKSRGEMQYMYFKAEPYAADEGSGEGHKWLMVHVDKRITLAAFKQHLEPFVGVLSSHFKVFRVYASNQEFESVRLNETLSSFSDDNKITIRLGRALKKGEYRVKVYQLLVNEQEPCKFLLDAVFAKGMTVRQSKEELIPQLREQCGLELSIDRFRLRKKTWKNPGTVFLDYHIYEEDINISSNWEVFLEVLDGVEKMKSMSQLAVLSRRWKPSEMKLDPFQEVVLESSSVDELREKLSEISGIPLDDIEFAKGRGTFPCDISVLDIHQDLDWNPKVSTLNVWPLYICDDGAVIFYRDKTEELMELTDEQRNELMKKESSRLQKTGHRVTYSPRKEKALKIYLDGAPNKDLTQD
Procedure, shortened: as §1

PAPPA = PAPPA (human, UniProt Q13219 82-1627)
Procedure, shortened: as §1

Measured: binding result

Sequence of BRCA2 (P51587 whole entry): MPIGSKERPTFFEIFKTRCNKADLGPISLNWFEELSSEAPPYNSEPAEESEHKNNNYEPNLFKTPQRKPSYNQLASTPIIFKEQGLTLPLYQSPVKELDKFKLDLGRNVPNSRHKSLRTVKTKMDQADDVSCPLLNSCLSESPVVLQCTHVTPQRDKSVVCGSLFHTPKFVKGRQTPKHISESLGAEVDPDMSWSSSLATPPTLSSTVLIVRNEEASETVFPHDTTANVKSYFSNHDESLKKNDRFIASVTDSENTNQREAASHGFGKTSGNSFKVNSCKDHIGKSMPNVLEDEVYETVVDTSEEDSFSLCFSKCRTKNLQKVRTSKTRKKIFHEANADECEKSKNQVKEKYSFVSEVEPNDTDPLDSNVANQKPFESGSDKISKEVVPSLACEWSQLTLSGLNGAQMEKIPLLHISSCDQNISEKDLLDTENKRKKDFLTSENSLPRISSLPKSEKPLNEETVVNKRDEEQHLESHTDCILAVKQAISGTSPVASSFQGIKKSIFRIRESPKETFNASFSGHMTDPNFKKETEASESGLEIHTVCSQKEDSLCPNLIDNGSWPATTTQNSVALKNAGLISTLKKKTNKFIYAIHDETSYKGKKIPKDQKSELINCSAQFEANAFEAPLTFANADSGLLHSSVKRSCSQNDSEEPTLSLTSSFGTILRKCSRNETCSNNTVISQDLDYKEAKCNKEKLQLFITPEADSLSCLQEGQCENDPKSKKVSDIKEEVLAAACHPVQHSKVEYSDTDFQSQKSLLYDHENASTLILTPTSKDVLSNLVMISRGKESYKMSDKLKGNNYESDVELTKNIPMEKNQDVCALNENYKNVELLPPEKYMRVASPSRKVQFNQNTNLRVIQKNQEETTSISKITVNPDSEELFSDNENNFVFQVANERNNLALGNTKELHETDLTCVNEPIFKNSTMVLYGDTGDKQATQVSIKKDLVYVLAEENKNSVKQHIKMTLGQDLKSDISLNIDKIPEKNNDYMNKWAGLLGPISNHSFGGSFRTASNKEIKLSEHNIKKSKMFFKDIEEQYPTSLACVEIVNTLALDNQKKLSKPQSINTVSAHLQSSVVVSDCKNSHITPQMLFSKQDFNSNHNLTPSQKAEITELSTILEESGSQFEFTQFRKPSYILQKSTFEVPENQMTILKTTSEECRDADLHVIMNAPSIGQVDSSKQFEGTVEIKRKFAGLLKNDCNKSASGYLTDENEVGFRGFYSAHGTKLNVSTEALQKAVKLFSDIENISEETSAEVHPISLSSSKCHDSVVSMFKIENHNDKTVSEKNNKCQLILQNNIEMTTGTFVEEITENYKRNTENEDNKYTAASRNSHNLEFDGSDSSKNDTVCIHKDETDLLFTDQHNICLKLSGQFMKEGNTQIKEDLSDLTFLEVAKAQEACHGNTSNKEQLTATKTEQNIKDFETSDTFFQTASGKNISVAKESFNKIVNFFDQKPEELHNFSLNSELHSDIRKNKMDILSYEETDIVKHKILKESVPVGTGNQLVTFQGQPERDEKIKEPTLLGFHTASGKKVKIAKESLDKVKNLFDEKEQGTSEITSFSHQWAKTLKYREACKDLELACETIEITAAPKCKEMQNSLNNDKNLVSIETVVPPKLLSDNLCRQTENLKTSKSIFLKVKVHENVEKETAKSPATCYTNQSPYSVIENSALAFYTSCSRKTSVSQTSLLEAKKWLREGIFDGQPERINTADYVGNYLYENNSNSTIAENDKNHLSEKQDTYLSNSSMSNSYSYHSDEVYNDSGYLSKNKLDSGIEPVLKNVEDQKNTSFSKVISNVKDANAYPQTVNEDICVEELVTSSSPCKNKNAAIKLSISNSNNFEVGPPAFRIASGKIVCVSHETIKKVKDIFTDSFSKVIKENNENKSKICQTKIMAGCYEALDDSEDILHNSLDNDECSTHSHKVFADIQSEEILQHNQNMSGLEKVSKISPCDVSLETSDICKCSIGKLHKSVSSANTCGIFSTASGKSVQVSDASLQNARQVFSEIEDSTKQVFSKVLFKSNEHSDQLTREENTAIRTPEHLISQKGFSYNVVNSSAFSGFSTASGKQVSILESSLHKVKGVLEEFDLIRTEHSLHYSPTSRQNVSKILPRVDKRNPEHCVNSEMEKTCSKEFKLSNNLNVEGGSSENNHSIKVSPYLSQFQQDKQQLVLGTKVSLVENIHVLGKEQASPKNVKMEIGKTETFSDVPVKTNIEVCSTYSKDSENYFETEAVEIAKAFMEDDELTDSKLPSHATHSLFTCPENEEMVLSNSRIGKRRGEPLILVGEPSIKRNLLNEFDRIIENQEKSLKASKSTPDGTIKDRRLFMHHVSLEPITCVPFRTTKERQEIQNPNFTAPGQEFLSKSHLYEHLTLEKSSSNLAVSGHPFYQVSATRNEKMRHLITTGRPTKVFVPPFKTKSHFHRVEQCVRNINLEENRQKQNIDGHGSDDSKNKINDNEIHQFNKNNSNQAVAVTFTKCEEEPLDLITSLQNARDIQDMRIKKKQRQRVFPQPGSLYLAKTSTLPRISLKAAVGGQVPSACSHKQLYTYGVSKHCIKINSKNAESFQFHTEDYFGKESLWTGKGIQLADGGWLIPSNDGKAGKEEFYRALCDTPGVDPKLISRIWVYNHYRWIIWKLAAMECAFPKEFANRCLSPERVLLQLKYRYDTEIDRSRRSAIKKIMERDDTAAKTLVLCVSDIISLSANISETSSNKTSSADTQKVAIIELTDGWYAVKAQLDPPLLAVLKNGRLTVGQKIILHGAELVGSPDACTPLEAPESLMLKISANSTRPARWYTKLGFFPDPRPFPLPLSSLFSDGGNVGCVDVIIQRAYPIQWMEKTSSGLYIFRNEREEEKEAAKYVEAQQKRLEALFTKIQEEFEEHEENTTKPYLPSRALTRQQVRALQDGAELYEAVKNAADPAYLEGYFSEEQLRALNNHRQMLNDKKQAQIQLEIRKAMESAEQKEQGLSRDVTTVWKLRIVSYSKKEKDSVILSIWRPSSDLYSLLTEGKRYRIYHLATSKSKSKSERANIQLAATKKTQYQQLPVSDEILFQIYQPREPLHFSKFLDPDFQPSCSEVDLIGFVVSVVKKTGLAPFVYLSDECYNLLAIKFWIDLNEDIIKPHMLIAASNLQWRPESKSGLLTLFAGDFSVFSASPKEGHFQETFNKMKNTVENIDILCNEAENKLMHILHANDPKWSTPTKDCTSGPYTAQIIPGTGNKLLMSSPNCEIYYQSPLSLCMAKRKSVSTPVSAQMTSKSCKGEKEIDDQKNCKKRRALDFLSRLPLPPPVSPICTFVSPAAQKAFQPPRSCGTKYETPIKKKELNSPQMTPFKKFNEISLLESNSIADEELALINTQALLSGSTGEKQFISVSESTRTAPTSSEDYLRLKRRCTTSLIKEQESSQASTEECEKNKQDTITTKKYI
Sequence of PAPPA (Q13219 82-1627 limits assumed): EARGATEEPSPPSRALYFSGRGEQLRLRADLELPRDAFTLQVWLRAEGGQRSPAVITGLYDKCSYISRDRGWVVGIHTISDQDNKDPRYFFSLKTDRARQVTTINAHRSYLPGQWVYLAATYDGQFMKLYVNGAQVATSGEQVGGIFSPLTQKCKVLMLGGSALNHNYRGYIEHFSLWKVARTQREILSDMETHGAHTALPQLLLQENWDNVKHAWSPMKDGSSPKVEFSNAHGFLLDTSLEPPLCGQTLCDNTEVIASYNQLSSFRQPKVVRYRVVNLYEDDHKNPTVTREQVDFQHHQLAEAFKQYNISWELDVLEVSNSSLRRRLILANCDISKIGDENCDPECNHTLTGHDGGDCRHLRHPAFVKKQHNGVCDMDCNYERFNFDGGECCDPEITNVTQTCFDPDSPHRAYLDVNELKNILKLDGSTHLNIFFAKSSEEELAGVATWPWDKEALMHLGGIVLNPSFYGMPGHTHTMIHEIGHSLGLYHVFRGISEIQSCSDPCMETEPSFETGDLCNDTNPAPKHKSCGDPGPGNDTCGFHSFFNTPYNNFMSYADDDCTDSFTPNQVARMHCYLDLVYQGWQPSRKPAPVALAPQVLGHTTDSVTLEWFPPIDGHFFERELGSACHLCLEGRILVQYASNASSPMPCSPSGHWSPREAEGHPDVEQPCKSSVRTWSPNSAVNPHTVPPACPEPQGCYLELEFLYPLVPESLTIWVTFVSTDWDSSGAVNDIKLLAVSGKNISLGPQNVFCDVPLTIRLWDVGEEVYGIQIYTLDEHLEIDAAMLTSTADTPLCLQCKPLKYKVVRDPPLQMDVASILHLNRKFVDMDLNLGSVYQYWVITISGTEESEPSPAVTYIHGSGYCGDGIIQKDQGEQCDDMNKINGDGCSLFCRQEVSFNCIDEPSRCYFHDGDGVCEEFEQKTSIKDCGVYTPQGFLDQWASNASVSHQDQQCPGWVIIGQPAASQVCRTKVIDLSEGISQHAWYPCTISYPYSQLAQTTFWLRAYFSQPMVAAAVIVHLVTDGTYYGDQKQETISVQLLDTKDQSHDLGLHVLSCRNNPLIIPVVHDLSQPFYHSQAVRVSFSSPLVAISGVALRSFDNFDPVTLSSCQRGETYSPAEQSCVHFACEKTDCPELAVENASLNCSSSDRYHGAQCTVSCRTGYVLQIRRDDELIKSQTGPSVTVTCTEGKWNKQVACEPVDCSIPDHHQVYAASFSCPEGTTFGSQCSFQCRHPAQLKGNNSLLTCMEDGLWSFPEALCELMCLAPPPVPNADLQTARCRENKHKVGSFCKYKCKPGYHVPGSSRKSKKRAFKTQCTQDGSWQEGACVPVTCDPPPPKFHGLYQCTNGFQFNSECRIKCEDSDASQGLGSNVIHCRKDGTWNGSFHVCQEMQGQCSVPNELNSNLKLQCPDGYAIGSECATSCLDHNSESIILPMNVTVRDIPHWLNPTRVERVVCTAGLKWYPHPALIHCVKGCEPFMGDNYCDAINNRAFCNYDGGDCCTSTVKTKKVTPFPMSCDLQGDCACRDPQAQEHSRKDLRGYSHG

B1: LZTR1-FLAG (other, human, UniProt Q8N653 1-840, looked up)
chain: MAGPGSTGGQIGAAALAGGARSKVAPSVDFDHSCSDSVEYLTLNFGPFETVHRWRRLPPCDEFVGARRSKHTVVAYKDAIYVFGGDNGKTMLNDLLRFDVKDCSWCRAFTTGTPPAPRYHHSAVVYGSSMFVFGGYTGDIYSNSNLKNKNDLFEYKFATGQWTEWKIEGRLPVARSAHGATVYSDKLWIFAGYDGNARLNDMWTIGLQDRELTCWEEVAQSGEIPPSCCNFPVAVCRDKMFVFSGQSGAKITNNLFQFEFKDKTWTRIPTEHLLRGSPPPPQRRYGHTMVAFDRHLYVFGGAADNTLPNELHCYDVDFQTWEVVQPSSDSEVGGAEVPERACASEEVPTLTYEERVGFKKSRDVFGLDFGTTSAKQPTQPASELPSGRLFHAAAVISDAMYIFGGTVDNNIRSGEMYRFQFSCYPKCTLHEDYGRLWESRQFCDVEFVLGEKEECVQGHVAIVTARSRWLRRKITQARERLAQKLEQEAAPVPREAPGVAAGGARPPLLHVAIREAEARPFEVLMQFLYTDKIKYPRKGHVEDVLLIMDVYKLALSFQLCRLEQLCRQYIEASVDLQNVLVVCESAARLQLSQLKEHCLNFVVKESHFNQVIMMKEFERLSSPLIVEIVRRKQQPPPRTPLDQPVDIGTSLIQDMKAYLEGAGAEFCDITLLLDGHPRPAHKAILAARSSYFEAMFRSFMPEDGQVNISIGEMVPSRQAFESMLRYIYYGEVNMPPEDSLYLFAAPYYYGFYNNRLQAYCKQNLEMNVTVQNVLQILEAADKTQALDMKRHCLHIIVHQFTKVSKLPTLRSLSQQLLLDIIDSLASHISDKQCAELGADI
notes: Expressed in HEK 293T, HeLa or U87 cells; used as cell lysate; also called LZTR1 wild type-FLAG; LZTR1 WT; not shown: FLAG tag at the C-terminus
binds: all assays above
